Consider one molecule from patent publication US20230329245A1, “COMPOSITIONS AND METHODS OF USE THEREOF” (Curie Co. Inc., priority 2020, published 2023).

Values joined by “and” are separate entries in the source; they are usually repeats but may differ in a detail not shown here. Identical values can stand only once.

Holding throughout (assay type): cell-based
Experiment [1] relates to A. brasiliensis ATCC 16404. In words: Minimum fungicidal concentration (MFC), A. brasiliensis. The settings on record: no colonies recovered on SDA, duplicate. On the procedure:
(§1) Minimum fungicidal concentration (MFC) was determined by plating 10 microliters of liquid from each MFC test solution on the appropriate agar media for each test strain. The liquid was allowed to air dry in a biosafety cabinet, then the agar plates were incubated under the appropriate conditions: A. brasiliensis and C. albicans were grown on Sabouraud Dextrose Agar (SDA) plates. A. brasiliensis was grown at 25° C. for 5 to 7 days, while C. albicans was grown at 37° C. for 24 to 48 hours. Colony formation was then assessed. MFC is defined as the lowest concentration of the Tgase (SEQ ID NO:6) in which no colonies were recovered.

In experiment [2] the test system is C. albicans ATCC 10231. In words: Minimum fungicidal concentration (MFC), C. albicans. The note with it: no colonies recovered on SDA, duplicate, listed as Tgase variant (SEQ ID NO: 6). On the procedure: as §1
Experiment [3] has as its system A. brasiliensis ATCC 16404. Kind of experiment: MIC determination, A. brasiliensis. The note with it: RPMI 1640 pH 7.0, 25° C., up to 7 days, duplicate. On the procedure: A variant form of Streptomyces mobaraensis transglutaminase having the amino acid sequence depicted in SEQ ID NO:6 was prepared by literature methods with a hexa-his-tag to aid in purification (Javitt, et al. (2017) BMC Biotechnol. 17:23). The cells were grown in shake flasks, lysed by homogenization, and the Tgase variant (SEQ ID NO:6) was isolated from the cell debris by centrifugation. The resulting semi-purified enzyme (clarified lysate) were compared on an SDS-PAGE gel, by spectroscopy, and activity for concentration of active enzyme. The Tgase variant (SEQ ID NO:6) was further purified by affinity column on a Ni-IMAC resin prior to MIC assay. Tgase activity was measured in the examples herein using a colorimetric hydroxamate activity assay (Folk and Cole (1965) J Biol Chemistry 240(7):2951-2960). The enzyme was diluted to a working stock concentration of 2 mg/mL in CAMHB or RPMI media (bacterial or fungal media). This was then 2-fold serial diluted ten times in the appropriate media in a 96-well master plate to generate 2× starting concentrations for MIC testing. […]
C. albicans MIC 96-well plate was incubated for 37° C. for 24 to 48 hours. […] After incubation, all 96-well plates were examined visually and on a spectrophotometer at absorbance OD650. […]

Experiment [4] deals with C. albicans ATCC 10231. In words: Growth reduction of C. albicans culture (OD600 / BacTiter-Glo). The settings on record: C. albicans ATCC 10231. On the procedure: For MIC determination of yeast cultures, C. albicans ATCC 10231 was grown overnight (24 hours) in YPD media at 30° C. The following day, the cell density of the saturated cultures was calculated using OD600 and cultures were diluted to 10^4 to 10^6 CFU/mL in sterile YPD media to generate the inoculum, and 90 μL of the inoculum was combined with 10 μL of serially diluted Tgase SEQ ID NO:1 at a range of 0.0001-0.01 weight percent. The cultures were grown overnight at 30° C. and growth curves were measured by OD600 on a BioTek® Synergy Plate Reader. Optionally, the following day, a cell viability assay such as BacTiter-Glo™ (Promega®) following manufacturer's protocols) could be used to assess cell viability. A decrease in OD600 or luminescence indicated a decrease in cell viability. Results are presented as a percent reduction in cell count relative to an untreated culture. All test conditions were performed in triplicate.
(§2) Yeast or bacterial starter cultures were grown as described previously. Tgase (SEQ ID NO:6) was added to each culture at 0.001-1 weight percent. The cultures were grown overnight at 30° C.-37° C. and growth curves were measured by a BioTek® Synergy Plate Reader.

Experiment [5] concerns Yeast or bacterial starter cultures. Kind of experiment: Tgase biocidal activity on yeast or bacterial cultures (Example 2). The settings on record: where biocidal activity could be observed with both enzymes. On the procedure:
A variant form of Streptomyces mobaraensis transglutaminase having the amino acid sequence depicted in SEQ ID NO:6 was prepared by literature methods (Javitt, et al. (2017) BMC Biotechnol. 17:23) as previously described. Tgase activity was measured using the colorimetric hydroxamate activity assay (Folk and Cole (1965) J Biol Chemistry 240(7):2951-2960). Tgase cytotoxic activity was assessed either using OD600 or a commercially available kit (BacTiter-Glo™, Promega®, following manufacturer's protocol).
as §2

In experiment [6] the test system is C. parapsilosis ATCC 22019. In words: Minimum fungicidal concentration (MFC), C. parapsilosis. The note with it: no colonies recovered, duplicate, listed as Tgase variant (SEQ ID NO: 6).

B1: Tgase (SEQ ID NO: 6): variant Streptomyces mobaraensis transglutaminase (SEQ ID NO:2) with N-terminal Methionine, C-terminal peptide linker and hexa-His-Tag (protein)
chain: MDPDDRVTPPAEPLDRMPDPYRPSYGRAETVVNNYIRKWQQVYSHRDGRKQQMTEEQREWLSYGCVGVTWVNSGQYPTNRLAFASFDEDRFKNELKNGRPRSGETRAEFEGRVAKESFDEEKGFQRAREVASVMNRALENAHDESAYLDNLKKELANGNDALRNEDARSPFYSALRNTPSFKERNGGNHDPSRMKAVIYSKHFWSGQDRSSSADKRKYGDPDAFRPAPGTGLVDMSRDRNIPRSPTSPGEGFVNFDYGWFGAQTEADADKTVWTHGNHYHAPNGSLGAMHVYESKFRNWSEGYSDFDRGAYVITFIPKSWNTAPDKVKQGWPLEHHHHHH
For the molecule B1, the MFC in experiment [1] was 125 µg/mL; with C. albicans ATCC 10231 [2], 31.25 µg/mL and 62.5 µg/mL; in experiment [6], 250 µg/mL and 125 µg/mL. The same molecule came in with a minimum inhibitory concentration (MIC) in experiment [3] of 62.5 µg/mL. The “Fold improvement in enzyme efficacy” value with C. albicans ATCC 10231 [4] (Tgase (SEQ ID NO: 1) = 1) amounted to 10. The “Percent Growth Reduction” value in the experiment with C. albicans ATCC 10231 [4] (enzyme concentration 80 ug/mL) is reported as 99.95%. Also, the “potency relative to Tgase SEQ ID NO:1” value in experiment [5] was determined as 10 fold.

As a reminder, the MFC is the smallest concentration meeting the test's criterion for killing the fungus. Low readings indicate greater fungicidal potency, high ones weaker fungicidal potency. By MIC is commonly meant the least concentration at which growth counts as inhibited. A higher MIC goes with a less susceptible organism.
